Publication PMC12753239

Tests used:
[1] = target: zebrafish Ngly2 (amino acids: 45-663) (zebrafish (Danio rerio)); experiment: SEC; gel filtration at pH 4.0; elution around 150 kDa
[2] = target: zebrafish Ngly2 (amino acids: 45-663) (zebrafish (Danio rerio)); experiment: SEC; gel filtration at pH 8.0; Superdex200 increase 10/300 GL, 20 mM Tris-HCl (pH 8.0), 150 mM NaCl; elution around 150 kDa

“zebrafish Ngly2 (amino acids: 45-663) (enzyme)” showed a stoichiometry N [1] of 2 and a stoichiometry N [2] of 2.
